In test [1] the target is T1, murine serum albumin (mouse, UniProt P07724 25-608).
T1 construct: also called MuSA; mouse serum albumin
Briefly: SPR, albumin captured on CM5 chip. As to the method: The kinetics of selected SABA clones purified from HTPP and/or midscaled material were determined by capturing the respective serum albumin (HSA/RhSA/MuSA) on the surface of a Biasensor CM5 chip and flowing a concentration series of SABAs over both the reference flow cell and the captured albumins. In addition, binding to albumin was carried out under various pH conditions ranging from pH 5.5 to pH 7.4. […] SABA1.1 fits biochemical criteria for pH resistance and affinity/kinetics down to pH 5.5.
For orientation: In SPR one partner is held on a chip, and binding of the other changes the refractive index at the surface.

Test [2] concerns the target T2, human serum albumin (human, UniProt P02768 25-609).
T2 construct: also called HSA
In words: SPR (Biacore), albumin captured on CM5 chip, SABA flowed. How it is done: (§1) The kinetics of selected SABA clones purified from HTPP and/or midscaled material were determined by capturing the respective serum albumin (HSA/RhSA/MuSA) on the surface of a Biasensor CM5 chip and flowing a concentration series of SABAs over both the reference flow cell and the captured albumins. In addition, binding to albumin was carried out under various pH conditions ranging from pH 5.5 to pH 7.4. […] SABA1.1 fits biochemical criteria for pH resistance and affinity/kinetics down to pH 5.5. […]

Test [3] addresses T3, rhesus serum albumin (rhesus, UniProt Q28522 17-600).
T3 construct: also called RhSA
Described as above. How it is done: as §1

The next test concerns the target T4, human IL-12 (human, UniProt P29459 23-219; P29460 23-328).
T4 construct: heterodimeric cytokine; also called recombinant human IL-12
T4 sequence (looked up) 1: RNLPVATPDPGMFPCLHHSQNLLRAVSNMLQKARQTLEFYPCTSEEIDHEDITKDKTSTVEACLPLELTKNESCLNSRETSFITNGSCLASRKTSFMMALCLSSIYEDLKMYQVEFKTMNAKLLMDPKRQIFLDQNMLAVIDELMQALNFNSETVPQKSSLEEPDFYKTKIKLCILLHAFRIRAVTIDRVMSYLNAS
T4 sequence (looked up) 2: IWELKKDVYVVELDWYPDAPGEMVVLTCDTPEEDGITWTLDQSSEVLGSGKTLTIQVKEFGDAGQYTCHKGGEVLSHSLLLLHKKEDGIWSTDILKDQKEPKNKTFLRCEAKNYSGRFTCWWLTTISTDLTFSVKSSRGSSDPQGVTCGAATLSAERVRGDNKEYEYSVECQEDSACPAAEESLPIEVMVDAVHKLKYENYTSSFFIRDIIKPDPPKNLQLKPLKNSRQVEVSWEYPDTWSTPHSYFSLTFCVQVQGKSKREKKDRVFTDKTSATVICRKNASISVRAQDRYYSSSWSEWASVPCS
In words: SPR, Adnectin captured on immobilized anti-His antibody. As to the method:
Adnectins listed in Table 2 as well as ATI001016 were used to examine the biochemical selectivity towards IL-23/IL-12. The binding analysis involved the capture of anti-IL-23 Adnectins on immobilized anti-His antibody followed by flow of IL-23 or IL-12 over the Adnectin. The selectivity of the Adnectins for IL-23 was assessed by comparing the binding signal for a 100 fold higher concentration of IL-12 over IL-23.

In test [4] the target is T5, human IL-23 (human, UniProt Q9NPF7 20-189; P29460 23-328).
T5 construct: also called hIL-23; human recombinant IL-23
T5 sequence (looked up) 1: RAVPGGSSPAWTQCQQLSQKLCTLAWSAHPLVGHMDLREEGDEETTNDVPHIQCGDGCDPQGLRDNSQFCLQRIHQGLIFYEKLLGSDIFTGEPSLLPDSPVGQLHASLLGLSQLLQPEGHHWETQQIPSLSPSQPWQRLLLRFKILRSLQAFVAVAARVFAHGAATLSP
T5 sequence (looked up) 2: T4 sequence (looked up) 2
In words: SPR (ProteOn XPR), human IL-23 directly immobilized, 25 C. How it is done:
(§2) The binding characteristics were characterized by Surface Plasmon Resonance (SPR). Human IL-23 was immobilized at two to four levels in one dimension of a ProteOn XPR (Bio-Rad) chip surfaces and exposed to 6 different concentrations of anti-IL-23 adnectins in the other dimension of the same SPR chip surface. This allowed kinetic determination in the absence of regeneration. Duplicate chips were used for kinetic determinations at 25° C. and 37° C. Evaluation of the kinetic parameters was performed using the Langmuir interaction model and constant parameter fitting with the ProteOn Manager software.
(§3) Even at 37° C. the off rates were close to the limit of detection for SPR technologies so it is possible that the reported dissociation constant measurements are under-estimates.

Test [5] concerns the target T5, human IL-23. In words: KinExA, solution phase, adnectin titrated, unbound IL-23 captured on non-PEGylated ATI001045 matrix. As to the method:
The solution affinity of ATI001045 and ATI001047 for human IL-23 was also measured using an alternate format in the KinExA. Duplicate titrations of adnectins were performed for each of three (ATI001045) or single (ATI001047) concentrations of human IL-23 (quadruplicate for the lowest concentration). The relative unbound human IL-23 concentration was measured by capture on a non-PEGylated ATI001045 solid matrix followed by detection with a fluorescently labeled antibody that recognizes the p40 subunit of hIL-23.

Test [6] deals with T5, human IL-23. In words: cell-based or functional assay.
Test [7] addresses T5, human IL-23. In words: SPR (ProteOn XPR), human IL-23 directly immobilized, 37 C. How it is done: as §2, §3
Test [8] addresses T5, human IL-23. Briefly: KinExA, solution phase, hIL-23 titrated, unbound ATI001045 captured on IL-23 matrix. How it is done:
The solution affinity of ATI001045 for human IL-23 was measured using a Kinetic Exclusion Assay (KinExA). In one format duplicate titrations of hIL-23 were performed for each of three concentrations. The relative unbound ATI001045 concentration was measured by capture on a human IL-23 solid matrix followed by detection with a fluorescently labeled antibody that recognizes the Adnectin scaffold. Due to technical limitations, the lowest concentration that could be tested was 0.75 nM.
In general terms: A kinetic exclusion assay measures how much of one partner remains free in solution.

Test [9] deals with T2, human serum albumin. In words: SPR, HBS-P buffer.
The target of test [10] is T3, rhesus serum albumin. Briefly: SPR, HBS-P buffer.
Test [11] has as its target T2, human serum albumin. Briefly: SPR, HBS-P buffer, 25 C.
Test [12] addresses T3, rhesus serum albumin. In words: SPR, HBS-P buffer, 25 C.
For test [13], the target named is T1, murine serum albumin. In words: SPR, HBS-P buffer, 25 C.
Test [14] addresses T2, human serum albumin. Briefly: SPR, HBS-P buffer, 37 C.
The target of test [15] is T3, rhesus serum albumin. In words: SPR, HBS-P buffer, 37 C.
Test [16] deals with T2, human serum albumin. Briefly: SPR, MES buffer, pH 5.5.
In test [17] the target is T3, rhesus serum albumin. In words: SPR, MES buffer, pH 5.5.
Test [18] addresses T2, human serum albumin. Briefly: SPR, MES buffer, pH 7.4.
For test [19], the target named is T3, rhesus serum albumin. Briefly: SPR, MES buffer, pH 7.4.
A further test has as its target rat serum albumin (rat, UniProt P02770 25-608). In words: SPR and direct binding ELISA. (ELISA stands for enzyme-linked immunosorbent assay.)

Numbering of substitutions follows the chain as printed. Some results are limits rather than exact numbers.

As a reminder, the Kd is the constant that tells how readily two partners part at equilibrium. A lower Kd goes with a tighter complex. By koff is commonly meant the rate constant with which the complex falls apart. Low readings indicate slow dissociation, high ones fast dissociation. The kon is a measure of how fast the partners come together.

T3 sequence (Q28522 17-600 limits assumed): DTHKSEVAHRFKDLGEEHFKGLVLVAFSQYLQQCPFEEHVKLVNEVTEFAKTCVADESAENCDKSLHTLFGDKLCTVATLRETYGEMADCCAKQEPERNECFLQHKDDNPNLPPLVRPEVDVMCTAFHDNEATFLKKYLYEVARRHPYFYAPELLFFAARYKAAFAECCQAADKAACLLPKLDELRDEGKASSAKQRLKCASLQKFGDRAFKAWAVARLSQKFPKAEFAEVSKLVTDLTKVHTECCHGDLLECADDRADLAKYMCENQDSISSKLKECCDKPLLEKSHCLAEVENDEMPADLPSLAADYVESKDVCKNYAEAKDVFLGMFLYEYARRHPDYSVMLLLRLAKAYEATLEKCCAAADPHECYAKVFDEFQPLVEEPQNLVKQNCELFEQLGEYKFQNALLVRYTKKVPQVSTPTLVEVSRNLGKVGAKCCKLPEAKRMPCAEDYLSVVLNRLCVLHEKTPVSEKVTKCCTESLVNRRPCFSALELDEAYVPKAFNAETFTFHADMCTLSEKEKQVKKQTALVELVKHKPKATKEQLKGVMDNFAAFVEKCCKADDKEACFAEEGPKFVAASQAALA
T2 sequence (P02768 25-609 limits assumed): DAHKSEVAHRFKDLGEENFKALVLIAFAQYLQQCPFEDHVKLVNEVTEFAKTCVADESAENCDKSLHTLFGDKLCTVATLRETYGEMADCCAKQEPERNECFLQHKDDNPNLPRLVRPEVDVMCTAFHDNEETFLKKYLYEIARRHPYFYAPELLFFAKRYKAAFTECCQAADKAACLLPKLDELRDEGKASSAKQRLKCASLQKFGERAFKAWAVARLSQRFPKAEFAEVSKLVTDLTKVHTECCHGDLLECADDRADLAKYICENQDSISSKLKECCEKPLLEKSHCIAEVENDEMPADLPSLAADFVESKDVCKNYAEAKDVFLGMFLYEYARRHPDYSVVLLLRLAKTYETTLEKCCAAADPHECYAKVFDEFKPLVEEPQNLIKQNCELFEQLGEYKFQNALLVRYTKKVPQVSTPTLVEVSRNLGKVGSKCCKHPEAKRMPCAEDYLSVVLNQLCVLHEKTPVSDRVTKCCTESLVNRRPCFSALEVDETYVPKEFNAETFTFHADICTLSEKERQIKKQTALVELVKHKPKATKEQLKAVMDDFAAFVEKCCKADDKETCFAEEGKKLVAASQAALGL
Sequence of rat serum albumin (P02770 25-608 limits assumed): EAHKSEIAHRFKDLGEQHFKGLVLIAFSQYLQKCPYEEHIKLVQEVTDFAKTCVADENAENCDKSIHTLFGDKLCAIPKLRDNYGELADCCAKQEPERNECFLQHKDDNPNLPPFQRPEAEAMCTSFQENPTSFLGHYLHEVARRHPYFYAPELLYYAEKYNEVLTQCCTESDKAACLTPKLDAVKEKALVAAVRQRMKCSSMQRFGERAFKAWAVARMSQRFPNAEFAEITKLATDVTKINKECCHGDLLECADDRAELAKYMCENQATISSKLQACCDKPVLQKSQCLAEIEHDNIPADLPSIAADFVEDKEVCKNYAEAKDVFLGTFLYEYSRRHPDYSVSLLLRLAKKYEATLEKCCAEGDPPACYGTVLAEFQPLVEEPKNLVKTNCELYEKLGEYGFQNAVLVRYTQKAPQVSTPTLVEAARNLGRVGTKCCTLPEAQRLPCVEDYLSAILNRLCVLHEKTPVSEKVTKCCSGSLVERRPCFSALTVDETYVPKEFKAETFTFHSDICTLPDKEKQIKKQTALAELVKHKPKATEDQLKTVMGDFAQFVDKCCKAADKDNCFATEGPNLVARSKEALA

B1: SABA4.1 (designed binder)
chain: MGVSDVPRDLEMVAATPTSLLISWEDDSYYSRYYRITYGETGGNSPVQEFTVPSDLYTATISGLKPGVDYTITVYAVTYDVTDLIMHEPISINYRTEIDKPSQHHHHHH
Take B1: the binding result in the test with murine serum albumin [1] is listed as “no binding”. For the same molecule, the Kd was 412 nM in the test with human serum albumin [2] and > 1000 nM in the test with rhesus serum albumin [3]. Moreover, the koff with human serum albumin [2] stood at 0.000782 s⁻¹; in the test with rhesus serum albumin [3] it was 0.00383 s⁻¹.

B2: SABA3.1 (designed binder)
chain: MGVSDVPRDLEVVAATPTSLLISWSNDGPGLSYYRITYGETGGNSPVQEFTVPSSQTTATISGLKPGVDYTITVYAVSYYTKKAYSAGPISINYRTEIDKPSQHHHHHH
As for B2, the binding result in the test with murine serum albumin [1] is given as “no binding”. Moreover, in the test with human serum albumin [2], the Kd was 863 nM and the koff is 0.0682 s⁻¹. In the test with rhesus serum albumin [3], this molecule gave a Kd of 431 nM and a koff of 0.0337 s⁻¹.

B3: SABA2.1 (designed binder)
chain: MGVSDVPRDLEVVAATPTSLLISWPKYDKTGHYYRITYGETGGNSPVQEFTVPTRQTTATISGLKPGVDYTITVYAVSKDDYYPHEHRPISINYRTEIDKPSQHHHHHH
With B3, the binding result with murine serum albumin [1] was “no binding”. Also, in the test with human serum albumin [2], the equilibrium dissociation constant (Kd) worked out at 33.8 nM and the koff was found to be 0.000171 s⁻¹. In the test with rhesus serum albumin [3], this molecule displayed a dissociation constant (Kd) of 63.6 nM and a koff of 0.000442 s⁻¹.

B4: ATI001016 (designed binder)
chain: MGVSDVPRDLEVVAATPTSLLISWGHYPLHVRYYRITYGETGGNSPVQEFTVPSRKYTATISGLKPGVDYTITVYAVTYYKEANYREIPISINYRTGSGC
modifications: pegylated at the C-terminal GSGC linker (Cys)
notes: not shown: his-tag
In the case of B4, the binding result in the test with human IL-12 is listed as “no binding (tested: 1 µM)”.

B5: ATI001047 (designed binder)
chain: B4 chain with S54P, K56S, Y57H, K81A, E82Q, A83E, R86K
modifications: pegylated at the C-terminal GSGC linker (Cys)
In the test with human IL-23 [4], B5 had a Kd of 1.6 nM, a koff of 2e-05 s⁻¹ and a kon of 13000 M⁻¹ s⁻¹. In the test with human IL-23 [5], this molecule registered a Kd of 0.0363 nM.

B6: ATI001045 (designed binder)
chain: B4 chain
modifications: pegylated at the C-terminal GSGC linker (Cys)
Regarding B6, the “IL-17 production by human T cells, EC50” value with human IL-23 [6] is 2 nM. Moreover, the Kd was determined as 0.17 nM with human IL-23 [4], 0.27 nM with human IL-23 [7], 0.051 nM with human IL-23 [8] and 0.0094 nM with human IL-23 [5]. Moreover, the koff is 2.5e-05 s⁻¹ with human IL-23 [4] and 5.5e-05 s⁻¹ with human IL-23 [7]. The on-rate constant (kon) with human IL-23 [4] was found to be 150000 M⁻¹ s⁻¹; in the test with human IL-23 [7] it was 203000 M⁻¹ s⁻¹.

B7: SABA1.1 (designed binder)
chain: MGVSDVPRDLEVVAATPTSLLISWHSYYEQNSYYRITYGETGGNSPVQEFTVPYSQTTATISGLKPGVDYTITVYAVYGSKYYYPISINYRTEIDKPSQHHHHHH
For B7, in the test with murine serum albumin [1], the binding result was “no binding”. Further, the dissociation constant Kd in the test with human serum albumin [2] came out at 47.2 nM; with rhesus serum albumin [3] it was 778 nM. Further, the koff with human serum albumin [2] came to 0.000457 s⁻¹; with rhesus serum albumin [3], 0.00545 s⁻¹.

B8: SABA1.2 (designed binder)
chain: MGVSDVPRDLEVVAATPTSLLISWHSYYEQNSYYRITYGETGGNSPVQEFTVPYSQTTATISGLKPGVDYTITVYAVYGSKYYYPISINYRTEIEDEDEDEDED
notes: core 1 with (ED)5 extension
With B8, the “fold increase in affinity at 37 C against 25 C” value in the test with human serum albumin [9] was ~2 fold. In the test with rhesus serum albumin [10], the “affinity at 37 C relative to 25 C” value amounted to 0.5 fold. Further, the dissociation constant (Kd) with human serum albumin [11] was 55.3 nM; in the test with rhesus serum albumin [12], 580 nM; with human serum albumin [14] it was 24.1 nM; with rhesus serum albumin [15] it was 977 nM; with human serum albumin [16], 28.6 nM; in the test with rhesus serum albumin [17] it was 359 nM. For the same molecule, the results for the dissociation constant Kd in the test with human serum albumin [18] and in the test with rhesus serum albumin [19] were 41.9 nM and 479 nM, respectively. Also, the dissociation rate constant (koff) stood at 0.000443 s⁻¹ with human serum albumin [11]; 0.00378 s⁻¹ in the test with rhesus serum albumin [12]; 0.000815 s⁻¹ in the test with human serum albumin [14]; 0.0185 s⁻¹ in the test with rhesus serum albumin [15]; 0.00027 s⁻¹ with human serum albumin [16]; 0.00272 s⁻¹ with rhesus serum albumin [17]. Also, the koff with human serum albumin [18] was 0.000388 s⁻¹; in the test with rhesus serum albumin [19] it was 0.00295 s⁻¹. Moreover, the kon came out at 8210 M⁻¹ s⁻¹ with human serum albumin [11]; 6600 M⁻¹ s⁻¹ with rhesus serum albumin [12]; 33800 M⁻¹ s⁻¹ with human serum albumin [14]; 18900 M⁻¹ s⁻¹ with rhesus serum albumin [15]; 9440 M⁻¹ s⁻¹ in the test with human serum albumin [16]; 7570 M⁻¹ s⁻¹ with rhesus serum albumin [17]. In addition, the kon with human serum albumin [18] amounted to 9260 M⁻¹ s⁻¹; in the test with rhesus serum albumin [19], 6160 M⁻¹ s⁻¹. In addition, the binding result with murine serum albumin [13] is reported as “no binding (tested: up to 1 µM)”; in the test with rat serum albumin, “no binding (tested: 1 µM)”.

Source of the values: patent US20130012436A1 (Bristol-Myers Squibb, published 2013).
